The source of these data is PMC2119638.

The target in assay [1] is 190-kD proteolytic fragment of talin (chicken) (UniProt P54939). Kind of assay: radioligand binding.
In assay [2] the target is talin purified from chicken gizzard (chicken) (UniProt P54939). Kind of assay: radioligand binding.

In assay [1], “vinculin purified from chicken gizzard (natural protein)” displayed a Kd, higher affinity of two of 0.016 µM and a Kd, lower affinity of two of 0.22 µM. In assay [2], the Kd, high affinity interaction is 0.03 µM; the Kd, higher affinity of two was 0.01 µM; the Kd, lower affinity interaction stood at 0.55 µM; the Kd, lower affinity of two was 0.24 µM. In assay [2], the N (Bmax), high affinity interaction (mol of vinculin bound per mol of talin) came out at 0.15 and the N (Bmax), lower affinity interaction (mol of vinculin bound per mol of talin) was 3.
